Patent publication US20230272055A1, “ANTI-MUTANT CALRETICULIN (CALR) ANTIBODIES AND USES THEREOF” (Incyte Corporation, priority 2021, published 2023)

Test system: BaF3 cells expressing MPL/mutCALR Type 1
Assay: Example 16 inhibition of cell proliferation, CellTiter-Glo 72 hours
Type: cell-based
Method: The ability of the five antibodies shown here to inhibit cell proliferation was tested. Inhibition of cell proliferation was assessed using engineered BaF3 cells expressing MPL/mutCALR Type 1. Cells were plated at 5,000 cells per well in RPMI 1640+2% FBS, antibodies were added and incubated for 72 hours, followed by assessment of cell viability using the CellTiter-Glo Luminescent Cell Viability Assay (Promega, Madison, Wis.) and Top Count (Perkin Elmer, Boston, Mass.) or Pherastar (BMG Labtech, Ortenberg, Germany) for luminescence quantification. […] The data shown in FIGS. 21A and 21B were compiled from different experiments.

B1: AB4: anti-mutCALR antibody including VH and VL regions of antibody 8B2-H6 from WO2016087514 fused to human constant regions (antibody)
heavy: EVQLKQSGPELVKTGASVKISCKASGYSFTGYYIHWVKQSHGKSLEWIGYISCYNGASSYNQKFKGKATFTVDTSSSTAYMQFNSLTSGDSAVYYCASSMDYWGQGTSVTVSSASTKGPSVFPLAPSKSTSGGTAALGCLVKDYFPEPVTVSWNSGALTSGVHTFPAVLQSSGLYSLSSVVTVPSSSLGTQTYICNVNHKPSNTKVDKKVEPKSCDKTHTCPPCPAPELLGGPSVFLFPPKPKDTLMISRTPEVCVVVDVSHEDPEVKFNWYVDGVEVHNAKTKPREEQYNSTYRVVSVLTVLHQDWLNGKEYKCKVSNKALPAPIEKTISKAKGQPREPQVYTLPPSREEMTKNQVSLTCLVKGFYPSDIAVEWESNGQPNNYKTTPPVLDSDGSFFLYSKLTVDKSRWQQGNVFSCSVMHEALHNHYTQKSLSLSPG
light: DVVMTQTPLTLSVTIGQPASISCKSSQSLLDSDGKTYLNWLLQRPGQSPKRLIYLVSKLDSGVPDRFTGSGSGTDFTLKISRVEAEDLGVYHCWQGTHFPYTFGGGTKLEIKRTVAAPSVFIFPPSDQLKSGTASVVCLLNNFYPREAKVQWKVDNALQSGNSQESVTEQDSKDSTYSLSSTLTLSKADYEKHKVYACEVTHQGLSSPVTKSFNRGEC
B1 was tested, and the “inhibition of cell proliferation” value (72 hours, FIG. 21B, Table 16) was “no functional activity” and the “IC50 for anti-mutCALR antibody mediated inhibition of cell proliferation” value (BaF3 cells expressing MPL/mutCALR Type 1, 72 hours, CellTiter-Glo) was greater than 60 mg/L.
